Reference: the supplement of paper PMC7125110
± gives the standard error. For some assays here: Fewer inactive variants are shown than the library holds.

B1: glmS ribozyme (parent)
chain: AUAAAAGCGCCAGAACUACAGAAAUGUAGUUGACGAGGAGGAGGUUUAUCGAAUUUUCGGCGGAUGCCUCCAAA

Tests used:
Settings in all cases: with glucosamine-6-phosphate
[1] = variants of: B1; experiment: kcat; higher = faster cleavage; RNA array
In short: (§1)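 On sequenced MiSeq chips, barcoded ribozyme variants were made in situ by E. coli RNA polymerase and followed at 37 °C through a hybridised Cy3 probe. Glucosamine-6-phosphate was flowed in at 40 μM to 10 mM in HEPES/KCl/Mg(OAc)2 buffer. Exponential fits to normalised per-tile medians gave kobs, and weighted Michaelis–Menten fits gave kcat and KM.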

[2] = variants of: B1; experiment: KM; higher = weaker cofactor use; RNA array
In short: as §1

[3] = variants of: B1; experiment: self-cleavage kobs at 40 uM GlcN6P; higher = faster cleavage; RNA array
In short: as §1

[4] = variants of: B1; experiment: self-cleavage kobs at 2500 uM GlcN6P; higher = faster cleavage; RNA array
In short: as §1

[5] = variants of: B1; experiment: self-cleavage kobs at 10000 uM GlcN6P; higher = faster cleavage; RNA array
In short: as §1

[6] = variants of: B1; experiment: self-cleavage kobs at 160 uM GlcN6P; higher = faster cleavage; RNA array
In short: as §1

[7] = variants of: B1; experiment: self-cleavage kobs at 640 uM GlcN6P; higher = faster cleavage; RNA array
In short: as §1

Variant | kcat [1] [s⁻¹] | KM [2] [µM] | self-cleavage kobs at 40 uM GlcN6P [3] [s⁻¹] | self-cleavage kobs at 2500 uM GlcN6P [4] [s⁻¹] | self-cleavage kobs at 10000 uM GlcN6P [5] [s⁻¹] | self-cleavage kobs at 160 uM GlcN6P [6] [s⁻¹] | self-cleavage kobs at 640 uM GlcN6P [7] [s⁻¹]
A23C C70A | 0.000172 ± 3.1e-05 | 139 ± 68 | 3.76e-05 ± 1.2e-05 | 0.000302 ± 0.0001 | 0.000156 ± 3.2e-05 | – | –
A12C C71U | 0.0215 ± 0.0089 | – | 0.000587 ± 7e-05 | 0.0206 ± 0.0035 | 0.0164 ± 0.0023 | 0.00112 ± 0.00015 | 0.00448 ± 0.00062
C16A U54C | 0.00231 ± 0.00079 | – | 6.96e-05 ± 1.3e-05 | 0.000967 ± 0.00025 | 0.00194 ± 0.00029 | 0.000102 ± 2.6e-05 | 0.000575 ± 0.00013
G37U C71A | 1.95e-05 ± 4.6e-06 | – | – | – | – | – | –
A6U A52G | < 1e-05 | – | – | – | – | < 1e-05 | < 1e-05
A12G U69A | 0.000112 ± 2.3e-05 | – | – | 0.000171 ± 5.2e-05 | 9.85e-05 ± 1.9e-05 | – | 4.87e-05 ± 2.1e-05
A15G U47G | 0.00418 ± 0.0015 | – | 0.000326 ± 5.4e-05 | 0.00298 ± 0.00072 | 0.00738 ± 0.0014 | 0.000812 ± 0.00016 | 0.00171 ± 0.00031
C11A C50U A64U | < 1e-05 | – | – | – | – | – | –
A14U A48G | 1.29e-05 ± 5.7e-06 | – | – | – | – | < 1e-05 | –
C11A G66U | < 1e-05 | 58.7 ± 26 | < 1e-05 | < 1e-05 | – | – | < 1e-05
G62U C71A | < 1e-05 | – | < 1e-05 | < 1e-05 | – | – | –
U31A G44A | 0.00023 ± 5.7e-05 | 4780 ± 2400 | – | 9.2e-05 ± 1.5e-05 | 0.000151 ± 2.1e-05 | – | –
G13U A14U | 0.000743 ± 0.00015 | 2270 ± 1000 | – | 0.000331 ± 4.6e-05 | 0.00066 ± 7.3e-05 | 8.56e-05 ± 2.3e-05 | 0.000174 ± 3.7e-05
A33U C67U | 4.33e-05 ± 9.7e-06 | – | – | 2.49e-05 ± 6.9e-06 | 4.16e-05 ± 7.3e-06 | – | 3.39e-05 ± 1.5e-05
U47A C61A C70G C71U | 1.64e-05 ± 4.7e-06 | – | – | – | – | – | –
U46G C70A | 0.000224 ± 6.8e-05 | – | 4.78e-05 ± 1.2e-05 | 0.000395 ± 7.2e-05 | 0.000188 ± 3.1e-05 | 4.54e-05 ± 1.6e-05 | 0.000153 ± 2.5e-05
G13U U30C | 0.000509 ± 0.00014 | 3530 ± 1600 | – | 0.000253 ± 3.1e-05 | 0.000354 ± 4.9e-05 | 3.75e-05 ± 1e-05 | 6.12e-05 ± 1.2e-05
C16A U30G | 0.000341 ± 4.6e-05 | 2530 ± 560 | – | 0.000175 ± 2.3e-05 | 0.000243 ± 9.7e-05 | – | 6.82e-05 ± 1.2e-05
